According to patent US20080159996:

What was measured:
Assay in all cases: cell_activity
[1] = test system: ZFN 8196z-FokI E490K/I538K (ZFN224 pair member) (synthetic)
[2] = test system: ZFN 8196z-FokI wt (ZFN215 and ZFN201 pair member) (synthetic)
[3] = test system: ZFN 8266-FokI Q486E/I499L (ZFN224 pair member) (synthetic)
[4] = test system: ZFN 8267-FokI wt (ZFN215 pair member) (synthetic); details: pair ZFN215 with 8196z, CD4+ T-cells, MOI 100, Cel-1 assay; 31.2% in PBMCs
[5] = test system: ZFN 8266-FokI wt (ZFN201 pair member) (synthetic); details: pair ZFN201 with 8196z, PM1 cells, plasmid electroporation
[6] = pair ZFN224, CD4 T cells, conditions giving 35.6% CCR5 modification, Surveyor nuclease

“AAACTGCAAAAG (double strand) [CCR5 168 half-site]” gave an activity (% CCR5 alleles modified) ([1]; pair ZFN224, CD4+ T-cells, MOI 100, Cel-1 assay, 48.4% in Example 4) of 14.9, an activity (% CCR5 alleles modified) ([2]; pair ZFN201 with 8266, PM1 cells, plasmid electroporation) of 2.4 and an activity (% CCR5 alleles modified) ([2]; pair ZFN215 with 8267, CD4+ T-cells, MOI 100, Cel-1 assay, 31.2% in PBMCs) of 32.3.
CCR2 off-target site was tested, and the activity (% CCR2 alleles modified) [1, 6] was 4.1 and the activity (% CCR2 alleles modified) [3, 6] was 4.1.
“GATGAGGATGAC (double strand) [CCR5 r162 half-site]” was tested, and the activity (% CCR5 alleles modified) [4] was 32.3, the activity (% CCR5 alleles modified) [5] was 2.4 and the activity (% CCR5 alleles modified) ([3]; pair ZFN224 with 8196z, CD4+ T-cells, MOI 100, Cel-1, Examples 14 and 17 state 8266 in ZFN224 but Example 1 states 8267) was 14.9.
